Drawing on US20180155451A1 (published 2018), this text covers Ho/Con_2aR and Ho/Con_2b for 49 molecules.

B1: GpH7-B3 variant P331_15Y/GpL16-k0 (antibody, human IgG1, kappa)
heavy: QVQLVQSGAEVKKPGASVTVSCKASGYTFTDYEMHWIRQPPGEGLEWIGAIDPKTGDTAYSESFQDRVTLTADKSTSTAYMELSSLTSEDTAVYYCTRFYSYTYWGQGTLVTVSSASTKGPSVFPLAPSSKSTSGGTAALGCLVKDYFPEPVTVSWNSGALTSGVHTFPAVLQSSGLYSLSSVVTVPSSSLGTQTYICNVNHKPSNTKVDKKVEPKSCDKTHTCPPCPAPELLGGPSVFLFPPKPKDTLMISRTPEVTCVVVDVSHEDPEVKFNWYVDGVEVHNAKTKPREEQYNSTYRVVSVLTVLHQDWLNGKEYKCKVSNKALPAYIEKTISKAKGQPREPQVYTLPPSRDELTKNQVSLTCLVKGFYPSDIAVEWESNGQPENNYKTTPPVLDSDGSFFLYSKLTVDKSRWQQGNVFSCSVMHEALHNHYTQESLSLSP
light: DIVMTQSPLSLPVTPGEPASISCQASESLVHSNRNTYLHWYLQKPGQSPQLLIYKVSNRFSGVPDRFSGSGSGTDFTLKISRVEAEDVGVYYCSQNTHVPPTFGQGTKVEIERTVAAPSVFIFPPSDEQLKSGTASVVCLLNNFYPREAKVQWKVDNALQSGNSQESVTEQDSKDSTYSLSSTLTLSKADYEKHKVYACEVTHQGLSSPVTKSFNRGEC
notes: also called Ho Ab P331_15Y
B2: GpH7-B3 variant P331_04F/GpL16-k0 (antibody, human IgG1, kappa)
heavy: not shown
light: B1 light
notes: also called Ho Ab P331_04F
B3: GpH7-B3 variant S239_10E/GpL16-k0 (antibody, human IgG1, kappa)
heavy: not shown
light: B1 light
notes: also called Ho Ab S239_10E
B4: GpH7-B3 variant N325_14T/GpL16-k0 (antibody, human IgG1, kappa)
heavy: not shown
light: B1 light
notes: also called Ho Ab N325_14T
B5: GpH7-B3 variant N325_09D/GpL16-k0 (antibody, human IgG1, kappa)
heavy: not shown
light: B1 light
notes: also called Ho Ab N325_09D
B6: GpH7-B3 variant N325_10E/GpL16-k0 (antibody, human IgG1, kappa)
heavy: not shown
light: B1 light
notes: also called Ho Ab N325_10E
B7: GpH7-B3 variant P331_16H/GpL16-k0 (antibody, human IgG1, kappa)
heavy: not shown
light: B1 light
notes: also called Ho Ab P331_16H
B8: GpH7-B3 variant P238_03V/GpL16-k0 (antibody, human IgG1, kappa)
heavy: not shown
light: B1 light
notes: also called Ho Ab P238_03V
B9: GpH7-B3 variant N325_01G/GpL16-k0 (antibody, human IgG1, kappa)
heavy: not shown
light: B1 light
notes: also called Ho Ab N325_01G
B10: GpH7-B3 variant P271_08L/GpL16-k0 (antibody, human IgG1, kappa)
heavy: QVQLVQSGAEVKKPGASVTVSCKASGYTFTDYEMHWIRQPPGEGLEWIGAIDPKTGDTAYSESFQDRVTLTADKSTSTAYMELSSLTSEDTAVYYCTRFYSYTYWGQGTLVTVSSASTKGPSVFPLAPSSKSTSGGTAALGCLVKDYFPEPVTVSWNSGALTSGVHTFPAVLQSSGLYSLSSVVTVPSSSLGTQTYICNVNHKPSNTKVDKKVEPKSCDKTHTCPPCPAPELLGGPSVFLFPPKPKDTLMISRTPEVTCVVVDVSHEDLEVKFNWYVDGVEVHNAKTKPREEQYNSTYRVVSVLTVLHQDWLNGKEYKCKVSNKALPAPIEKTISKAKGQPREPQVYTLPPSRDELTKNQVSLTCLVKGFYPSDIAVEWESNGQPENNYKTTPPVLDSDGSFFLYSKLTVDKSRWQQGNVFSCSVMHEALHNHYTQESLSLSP
light: B1 light
notes: also called Ho Ab P271_08L
B11: GpH7-B3 variant N325_20W/GpL16-k0 (antibody, human IgG1, kappa)
heavy: not shown
light: B1 light
notes: also called Ho Ab N325_20W
B12: GpH7-B3 variant N325_03V/GpL16-k0 (antibody, human IgG1, kappa)
heavy: not shown
light: B1 light
notes: also called Ho Ab N325_03V
B13: GpH7-B3 variant N325_13S/GpL16-k0 (antibody, human IgG1, kappa)
heavy: not shown
light: B1 light
notes: also called Ho Ab N325_13S
B14: GpH7-B3 variant P238_04F/GpL16-k0 (antibody, human IgG1, kappa)
heavy: not shown
light: B1 light
notes: also called Ho Ab P238_04F
B15: GpH7-B3 variant N325_07I/GpL16-k0 (antibody, human IgG1, kappa)
heavy: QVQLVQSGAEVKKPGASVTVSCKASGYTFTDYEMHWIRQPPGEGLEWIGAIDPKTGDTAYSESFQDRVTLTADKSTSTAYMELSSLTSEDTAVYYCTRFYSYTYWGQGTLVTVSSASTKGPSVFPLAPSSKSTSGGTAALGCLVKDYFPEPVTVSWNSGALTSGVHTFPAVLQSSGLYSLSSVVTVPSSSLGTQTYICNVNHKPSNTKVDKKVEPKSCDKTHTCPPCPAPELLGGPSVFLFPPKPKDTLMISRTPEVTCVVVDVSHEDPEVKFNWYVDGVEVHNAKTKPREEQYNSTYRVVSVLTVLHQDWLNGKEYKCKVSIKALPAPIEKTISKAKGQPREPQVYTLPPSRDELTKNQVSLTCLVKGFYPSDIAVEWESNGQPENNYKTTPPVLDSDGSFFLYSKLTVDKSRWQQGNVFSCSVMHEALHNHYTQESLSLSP
light: B1 light
notes: also called Ho Ab N325_07I
B16: GpH7-B3 variant N325_08L/GpL16-k0 (antibody, human IgG1, kappa)
heavy: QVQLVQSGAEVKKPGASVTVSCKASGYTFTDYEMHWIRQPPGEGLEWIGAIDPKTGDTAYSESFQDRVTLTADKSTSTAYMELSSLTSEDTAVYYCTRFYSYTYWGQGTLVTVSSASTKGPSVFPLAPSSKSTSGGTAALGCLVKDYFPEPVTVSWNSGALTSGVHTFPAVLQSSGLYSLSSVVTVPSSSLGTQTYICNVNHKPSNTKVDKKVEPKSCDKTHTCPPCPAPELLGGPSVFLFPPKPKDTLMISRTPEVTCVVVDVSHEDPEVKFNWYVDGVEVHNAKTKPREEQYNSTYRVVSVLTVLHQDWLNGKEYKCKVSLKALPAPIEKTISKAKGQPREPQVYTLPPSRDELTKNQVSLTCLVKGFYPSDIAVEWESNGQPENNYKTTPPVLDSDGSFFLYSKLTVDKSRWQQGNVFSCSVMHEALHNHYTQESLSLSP
light: B1 light
notes: also called Ho Ab N325_08L
B17: GpH7-B3 variant P238_09D/GpL16-k0 (antibody, human IgG1, kappa)
heavy: not shown
light: B1 light
notes: also called Ho Ab P238_09D
B18: GpH7-B3 variant P331_02A/GpL16-k0 (antibody, human IgG1, kappa)
heavy: not shown
light: B1 light
notes: also called Ho Ab P331_02A
B19: GpH7-B3 variant P238_06M/GpL16-k0 (antibody, human IgG1, kappa)
heavy: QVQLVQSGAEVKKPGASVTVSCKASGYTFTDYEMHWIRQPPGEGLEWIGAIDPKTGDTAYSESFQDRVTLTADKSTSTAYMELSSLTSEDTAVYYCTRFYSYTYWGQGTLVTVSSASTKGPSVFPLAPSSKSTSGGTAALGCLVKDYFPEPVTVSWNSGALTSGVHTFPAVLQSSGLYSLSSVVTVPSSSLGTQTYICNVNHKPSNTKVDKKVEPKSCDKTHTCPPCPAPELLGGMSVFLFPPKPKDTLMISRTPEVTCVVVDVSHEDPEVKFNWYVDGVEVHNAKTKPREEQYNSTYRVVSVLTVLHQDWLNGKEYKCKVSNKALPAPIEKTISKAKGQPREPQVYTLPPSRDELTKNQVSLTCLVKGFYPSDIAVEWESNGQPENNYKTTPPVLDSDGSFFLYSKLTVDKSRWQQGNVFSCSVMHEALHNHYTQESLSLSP
light: B1 light
notes: also called Ho Ab P238_06M
B20: GpH7-B3 variant P331_20W/GpL16-k0 (antibody, human IgG1, kappa)
heavy: not shown
light: B1 light
notes: also called Ho Ab P331_20W
B21: GpH7-B3 variant L328_13S/GpL16-k0 (antibody, human IgG1, kappa)
heavy: not shown
light: B1 light
notes: also called Ho Ab L328_13S
B22: GpH7-B3 variant S267_03V/GpL16-k0 (antibody, human IgG1, kappa)
heavy: not shown
light: B1 light
notes: also called Ho Ab S267_03V
B23: GpH7-B3 variant N325_15Y/GpL16-k0 (antibody, human IgG1, kappa)
heavy: not shown
light: B1 light
notes: also called Ho Ab N325_15Y
B24: GpH7-B3 variant L328_14T/GpL16-k0 (antibody, human IgG1, kappa)
heavy: not shown
light: B1 light
notes: also called Ho Ab L328_14T
B25: GpH7-B3 variant S239_08L/GpL16-k0 (antibody, human IgG1, kappa)
heavy: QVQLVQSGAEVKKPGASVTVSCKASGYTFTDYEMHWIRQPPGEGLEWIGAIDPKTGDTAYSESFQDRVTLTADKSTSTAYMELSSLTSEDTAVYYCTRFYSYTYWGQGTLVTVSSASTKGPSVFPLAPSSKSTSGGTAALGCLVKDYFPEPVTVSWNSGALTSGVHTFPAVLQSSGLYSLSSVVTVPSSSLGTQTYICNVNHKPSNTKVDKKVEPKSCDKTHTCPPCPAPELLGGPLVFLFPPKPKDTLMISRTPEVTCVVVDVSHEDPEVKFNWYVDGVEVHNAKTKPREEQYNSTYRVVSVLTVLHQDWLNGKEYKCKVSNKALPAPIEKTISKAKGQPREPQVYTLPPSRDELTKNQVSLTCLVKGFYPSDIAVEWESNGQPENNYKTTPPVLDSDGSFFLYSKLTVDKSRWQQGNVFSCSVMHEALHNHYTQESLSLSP
light: B1 light
notes: also called Ho Ab S239_08L
B26: GpH7-B3 variant S239_18N/GpL16-k0 (antibody, human IgG1, kappa)
heavy: not shown
light: B1 light
notes: also called Ho Ab S239_18N
B27: GpH7-B3 variant G237_02A/GpL16-k0 (antibody, human IgG1, kappa)
heavy: not shown
light: B1 light
notes: also called Ho Ab G237_02A
B28: GpH7-B3 variant H268_03V/GpL16-k0 (antibody, human IgG1, kappa)
heavy: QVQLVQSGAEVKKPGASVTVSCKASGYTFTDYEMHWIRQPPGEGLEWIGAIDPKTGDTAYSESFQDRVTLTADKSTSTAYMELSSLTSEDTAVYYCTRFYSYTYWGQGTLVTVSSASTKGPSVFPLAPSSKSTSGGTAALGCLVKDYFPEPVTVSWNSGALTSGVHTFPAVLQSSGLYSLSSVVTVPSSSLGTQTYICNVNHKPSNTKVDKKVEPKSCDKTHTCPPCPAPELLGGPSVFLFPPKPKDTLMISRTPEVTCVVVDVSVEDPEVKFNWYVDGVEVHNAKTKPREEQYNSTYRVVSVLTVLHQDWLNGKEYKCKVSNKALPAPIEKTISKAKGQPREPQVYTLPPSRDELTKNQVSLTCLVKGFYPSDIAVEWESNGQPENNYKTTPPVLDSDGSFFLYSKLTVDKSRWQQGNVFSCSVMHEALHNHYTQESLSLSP
light: B1 light
notes: also called Ho Ab H268_03V
B29: GpH7-B3 variant H268_05P/GpL16-k0 (antibody, human IgG1, kappa)
heavy: not shown
light: B1 light
notes: also called Ho Ab H268_05P
B30: GpH7-B3 variant A327_18N/GpL16-k0 (antibody, human IgG1, kappa)
heavy: not shown
light: B1 light
notes: also called Ho Ab A327_18N
B31: GpH7-B3 variant A330_05P/GpL16-k0 (antibody, human IgG1, kappa)
heavy: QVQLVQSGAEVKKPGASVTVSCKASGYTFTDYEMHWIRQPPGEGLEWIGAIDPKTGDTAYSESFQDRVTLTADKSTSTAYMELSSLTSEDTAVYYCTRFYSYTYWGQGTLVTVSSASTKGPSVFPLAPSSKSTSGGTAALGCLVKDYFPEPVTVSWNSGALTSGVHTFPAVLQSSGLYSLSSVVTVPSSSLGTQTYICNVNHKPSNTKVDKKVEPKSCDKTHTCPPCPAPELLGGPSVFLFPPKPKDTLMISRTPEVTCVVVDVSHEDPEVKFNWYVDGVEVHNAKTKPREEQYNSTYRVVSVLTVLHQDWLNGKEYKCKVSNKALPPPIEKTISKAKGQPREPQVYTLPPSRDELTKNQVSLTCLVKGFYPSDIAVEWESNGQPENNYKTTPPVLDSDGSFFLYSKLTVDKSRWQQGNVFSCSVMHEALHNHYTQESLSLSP
light: B1 light
notes: also called Ho Ab A330_05P
B32: GpH7-B3 variant G237_09D/GpL16-k0 (antibody, human IgG1, kappa)
heavy: not shown
light: B1 light
notes: also called Ho Ab G237_09D
B33: GpH7-B3 variant G237_04F/GpL16-k0 (antibody, human IgG1, kappa)
heavy: not shown
light: B1 light
notes: also called Ho Ab G237_04F
B34: GpH7-B3 variant G237_06M/GpL16-k0 (antibody, human IgG1, kappa)
heavy: not shown
light: B1 light
notes: also called Ho Ab G237_06M
B35: GpH7-B3 variant I336_08L/GpL16-k0 (antibody, human IgG1, kappa)
heavy: not shown
light: B1 light
notes: also called Ho Ab I336_08L
B36: GpH7-B3 variant I332_14T/GpL16-k0 (antibody, human IgG1, kappa)
heavy: not shown
light: B1 light
notes: also called Ho Ab I332_14T
B37: GpH7-B3 variant G237_19Q/GpL16-k0 (antibody, human IgG1, kappa)
heavy: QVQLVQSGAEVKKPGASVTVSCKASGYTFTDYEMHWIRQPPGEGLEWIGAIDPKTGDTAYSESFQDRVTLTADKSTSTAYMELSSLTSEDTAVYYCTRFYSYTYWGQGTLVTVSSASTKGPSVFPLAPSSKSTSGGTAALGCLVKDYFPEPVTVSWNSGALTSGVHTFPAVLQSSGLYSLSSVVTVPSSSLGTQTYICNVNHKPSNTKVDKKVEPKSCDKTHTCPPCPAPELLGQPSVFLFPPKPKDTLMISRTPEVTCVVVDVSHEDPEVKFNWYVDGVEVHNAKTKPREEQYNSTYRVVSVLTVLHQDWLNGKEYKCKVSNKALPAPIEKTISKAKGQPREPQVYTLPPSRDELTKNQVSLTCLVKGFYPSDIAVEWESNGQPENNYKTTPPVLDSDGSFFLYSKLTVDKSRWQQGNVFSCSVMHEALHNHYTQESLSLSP
light: B1 light
notes: also called Ho Ab G237_19Q
B38: GpH7-B3 variant G237_10E/GpL16-k0 (antibody, human IgG1, kappa)
heavy: not shown
light: B1 light
notes: also called Ho Ab G237_10E
B39: GpH7-B3 variant K326_07I/GpL16-k0 (antibody, human IgG1, kappa)
heavy: not shown
light: B1 light
notes: also called Ho Ab K326_07I
B40: GpH7-B3 variant G237_18N/GpL16-k0 (antibody, human IgG1, kappa)
heavy: not shown
light: B1 light
notes: also called Ho Ab G237_18N
B41: GpH7-B3 variant I336_06M/GpL16-k0 (antibody, human IgG1, kappa)
heavy: not shown
light: B1 light
notes: also called Ho Ab I336_06M
B42: GpH7-B3 variant H268_15Y/GpL16-k0 (antibody, human IgG1, kappa)
heavy: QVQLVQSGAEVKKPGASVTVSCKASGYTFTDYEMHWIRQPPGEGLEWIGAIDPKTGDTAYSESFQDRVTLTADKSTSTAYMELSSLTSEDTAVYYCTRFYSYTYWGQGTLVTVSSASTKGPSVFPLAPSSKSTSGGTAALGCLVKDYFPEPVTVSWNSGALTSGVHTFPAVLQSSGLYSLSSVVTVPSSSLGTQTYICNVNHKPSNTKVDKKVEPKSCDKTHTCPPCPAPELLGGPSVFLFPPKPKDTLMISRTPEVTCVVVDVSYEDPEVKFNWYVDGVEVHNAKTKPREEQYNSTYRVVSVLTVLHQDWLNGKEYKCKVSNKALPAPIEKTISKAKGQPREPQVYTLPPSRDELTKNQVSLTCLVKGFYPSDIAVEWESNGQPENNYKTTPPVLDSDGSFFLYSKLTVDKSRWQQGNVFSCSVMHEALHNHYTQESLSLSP
light: B1 light
notes: also called Ho Ab H268_15Y
B43: GpH7-B3 variant A327_07I/GpL16-k0 (antibody, human IgG1, kappa)
heavy: not shown
light: B1 light
notes: also called Ho Ab A327_07I
B44: GpH7-B3 variant G237_15Y/GpL16-k0 (antibody, human IgG1, kappa)
heavy: not shown
light: B1 light
notes: also called Ho Ab G237_15Y
B45: GpH7-B3 variant I332_02A/GpL16-k0 (antibody, human IgG1, kappa)
heavy: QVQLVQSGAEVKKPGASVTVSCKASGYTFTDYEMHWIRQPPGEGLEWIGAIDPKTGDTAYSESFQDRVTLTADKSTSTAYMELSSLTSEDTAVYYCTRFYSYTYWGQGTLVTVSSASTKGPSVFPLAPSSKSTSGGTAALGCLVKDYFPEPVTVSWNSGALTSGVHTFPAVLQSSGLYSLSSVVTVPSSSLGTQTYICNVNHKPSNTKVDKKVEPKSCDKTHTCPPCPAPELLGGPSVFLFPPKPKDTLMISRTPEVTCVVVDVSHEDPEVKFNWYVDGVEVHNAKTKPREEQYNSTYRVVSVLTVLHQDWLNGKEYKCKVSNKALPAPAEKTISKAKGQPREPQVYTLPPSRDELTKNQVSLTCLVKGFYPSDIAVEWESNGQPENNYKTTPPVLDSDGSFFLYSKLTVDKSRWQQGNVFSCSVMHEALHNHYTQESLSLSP
light: B1 light
notes: also called Ho Ab I332_02A
B46: GpH7-B3 variant G237_20W/GpL16-k0 (antibody, human IgG1, kappa)
heavy: not shown
light: B1 light
notes: also called Ho Ab G237_20W
B47: GpH7-B3 variant G237_13S/GpL16-k0 (antibody, human IgG1, kappa)
heavy: not shown
light: B1 light
notes: also called Ho Ab G237_13S
B48: GpH7-B3 variant A330_01G/GpL16-k0 (antibody, human IgG1, kappa)
heavy: not shown
light: B1 light
notes: also called Ho Ab A330_01G
B49: GpH7-B3 variant G237_08L/GpL16-k0 (antibody, human IgG1, kappa)
heavy: not shown
light: B1 light
notes: also called Ho Ab G237_08L

The first experiment addresses T1, FcγRIIa R (human, UniProt P12318 34-217).
T1 construct: extracellular domain; also called FcgRIIa R type; 2aR
T1 sequence (looked up): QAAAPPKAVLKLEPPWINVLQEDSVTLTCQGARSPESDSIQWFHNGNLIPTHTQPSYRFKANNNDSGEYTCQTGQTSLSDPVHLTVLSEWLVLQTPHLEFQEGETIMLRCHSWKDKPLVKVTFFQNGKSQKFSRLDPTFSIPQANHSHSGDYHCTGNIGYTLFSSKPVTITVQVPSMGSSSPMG
Description: SPR Biacore; vs GpH7-B3/GpL16-k0 =100. As to the method:
(§1) Analysis of interaction between objective antibody and the FcγR was carried out using Biacore T100 (GE Healthcare). HBS-EP+ (GE Healthcare) was used as the running buffer, and the measurement temperature was set to 25° C. Chips produced by immobilizing the antigen peptide by the amine coupling method to a Series S Sencor Chip CM5 (GE Healthcare), or alternatively, chips produced by allowing preliminarily biotinylated antigen peptides to interact with and immobilize onto a Series S Sensor Chip SA (certified) (GE Healthcare) were used. Antibodies of interest were captured onto an antigen peptide-immobilized chip, and allowed to interact to each FcγR diluted with running buffer. To regenerate and repeatedly use the chip, the antibodies captured on the chip were washed off by reacting 10 mM glycine-HCl, pH 1.5.
(§2) The FcγR-binding activity of each antibody was assessed primarily using as an indicator the FcγR-binding activity and dissociation constant for FcγR.
With B1, the Ho/Con_2aR was 105 % of control. On the same count and under the same terms, the value for B2 was 106 % of control; that for B3 was 122 % of control. Consider B4, for which the Ho/Con_2aR is 60.2 % of control. On the same count and under the same terms, the value for B5 was 74.8 % of control; that for B6 was 49.9 % of control; that for B7 was 100 % of control.

In the case of B8, the Ho/Con_2aR is 116 % of control. On to B9, for which the Ho/Con_2aR was 26.7 % of control.

Turning to B10, the Ho/Con_2aR is 102 % of control. As for B11, the Ho/Con_2aR was 56 % of control. Take B12: the Ho/Con_2aR is 37.8 % of control.

Turning to B13, the Ho/Con_2aR is 126 % of control. Take B14: the Ho/Con_2aR is 146 % of control. Take B15: the Ho/Con_2aR was 77 % of control. For the molecule B16, the Ho/Con_2aR is 95 % of control. On the same count and under the same terms, the value for B17 was 13 % of control; that for B18 was 102 % of control; that for B19 was 88.9 % of control. Consider B20, for which the Ho/Con_2aR is 102 % of control. For the molecule B21, the Ho/Con_2aR was 108 % of control. Turning to B22, the Ho/Con_2aR was 115 % of control. Turning to B23, the Ho/Con_2aR is 42.6 % of control. In the case of B24, the Ho/Con_2aR is 118 % of control. The same measure, in the same setting: the value for B25 was 106 % of control; that for B26 was 103 % of control.

A further experiment concerns the target T2, FcγRIIb (human, UniProt P31994 43-217).
T2 construct: extracellular domain; also called 2b; FcgRIIb
T2 sequence (looked up): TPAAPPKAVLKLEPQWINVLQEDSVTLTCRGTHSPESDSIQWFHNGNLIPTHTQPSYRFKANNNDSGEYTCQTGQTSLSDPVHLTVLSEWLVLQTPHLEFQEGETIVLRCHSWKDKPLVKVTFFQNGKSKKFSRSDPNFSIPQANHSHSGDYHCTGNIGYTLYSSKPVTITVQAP
Description: SPR (Biacore), binding relative to GpH7-B3/GpL16-k0 = 100. The procedure:
as §1, §2
Take B27: the Ho/Con_2b was 47.8 % of control. As for B28, the Ho/Con_2b is 109 % of control.

With B29, the Ho/Con_2b was 109 % of control.

B30: the Ho/Con_2b is 101 % of control. As to B31, the Ho/Con_2b is 35.3 % of control. Regarding B32, the Ho/Con_2b is 92.9 % of control. Turning to B33, the Ho/Con_2b is 140 % of control. With B34, the Ho/Con_2b was 35.3 % of control.

As to B35, the Ho/Con_2b is 103 % of control. As to B36, the Ho/Con_2b was 106 % of control. Turning to B37, the Ho/Con_2b was 5.3 % of control. On the same count and under the same terms, the value for B38 was 17.8 % of control; that for B39 was 170 % of control. B40: the Ho/Con_2b is 63.9 % of control. Turning to B41, the Ho/Con_2b is 90.1 % of control. Consider B42, for which the Ho/Con_2b is 104 % of control. For B43, the Ho/Con_2b was 37.6 % of control. The same measure, in the same setting: the value for B44 was 83.1 % of control.

Regarding B45, the Ho/Con_2b is 81.8 % of control.

As for B46, the Ho/Con_2b was 166 % of control. Take B47: the Ho/Con_2b is 25.7 % of control.

As for B48, the Ho/Con_2b was 102 % of control. As to B49, the Ho/Con_2b is 49.4 % of control.
